Reference: patent US20100111986A1 (Memorial Sloan Kettering, published 2010)

B1: A3WT-1 D (native) (peptide)
peptide: KLSHLQMHSR
B2: A3 WT-1 D2 (ANALOGUE) (peptide)
peptide: KLSHLQMHSK
B3: A3 WT-1 D3 (ANALOGUE) (peptide)
peptide: KLYHLQMHSK
B4: A3WT-1 D1 (ANALOGUE) (peptide)
peptide: KLYHLQMHSR
B5: A3 WT-1 A (native) (peptide)
peptide: NMHQRNMTK
B6: A3 WT-1 A3 (ANALOGUE) (peptide)
peptide: NMYQRVMTK
B7: A3WT-1 A2 (ANALOGUE) (peptide)
peptide: NMHQRVMTK
B8: A3 WT-1 A1 (ANALOGUE) (peptide)
peptide: NMYQRNMTK
B9: A3WT-1 C (native) (peptide)
peptide: FMCAYPGCNK
B10: A3 WT-1 C3 (ANALOGUE) (peptide)
peptide: FMYAYPFCNK
B11: A3 WT-1 C2 (ANALOGUE) (peptide)
peptide: FMCAYPFCNK
B12: A3WT-1 C1 (ANALOGUE) (peptide)
peptide: FMYAYPGCNK
B13: A3 WT-1 B (native) (peptide)
peptide: QMNLGATLK
B14: A3WT-1 B3 (ANALOGUE) (peptide)
peptide: QMYLGVTLK
B15: A3WT-1 B2 (ANALOGUE) (peptide)
peptide: QMNLGVTLK
B16: A3WT-1 B1 (ANALOGUE) (peptide)
peptide: QMYLGATLK
B17: WT-1 B1 (ANALOGUE) (peptide)
peptide: YLGEQQYSV
B18: WT-1 B (native) (peptide)
peptide: SLGEQQYSV
B19: WT-1 C1 (ANALOGUE) (peptide)
peptide: YLLPAVPSL
B20: WT-1 C (native) (peptide)
peptide: ALLPAVPSL
B21: WT-1 A1 (ANALOGUE) (peptide)
peptide: YMFPNAPYL
B22: WT-1 A (native) (peptide)
peptide: RMFPNAPYL
B23: WT-1 D1 (ANALOGUE) (peptide)
peptide: YLGATLKGV
B24: WT-1 D (native) (peptide)
peptide: NLGATLKGV

molecular target: T1, HLA-A0301 (human); assay: stabilization assay on Raji HLA-A0301 cells
T1 construct: MHC class I molecule on Raji HLA-A0301 cells

Binding result, binds:
B1, B2, B3, B4, B5, B6, B7, B8, B9, B10, B11, B12, B13, B14, B15, B16

molecular target: T2, HLA-A0201 (human); assay: T2 cell HLA stabilization assay, flow cytometry
T2 construct: MHC class I molecule on T2 cells; also called HLA-A2.1; HLA 0201
Description: T2 cells (TAP″, HLA-A0201⁺) were incubated overnight at 27° C. at a concentration of 1×10⁶ cells/ml in FCS-free RPMI medium supplemented with 5 μg/ml human β₂m (Sigma, St Louis, Mo.) in the absence (negative control) or presence of either a positive reference tyrosinase peptide or test peptides at various final concentrations (50, 10, 1, and 0.1 micrograms (μg)/ml). Following a 4-hour incubation with 5 μg/ml brefeldin A (Sigma), T2 cells were labeled for 30 minutes at 4° C. with a saturating concentration of anti-HLA-A2.1 (BB7.2) mAb, then washed twice. Cells were then incubated for 30 minutes, 4° C. with a saturating concentration of FITC-conjugated goat IgG F(ab′)2 anti-mouse Ig (Caltag, San Francisco, Calif.), washed twice, fixed in PBS/1% paraformaldehyde and analyzed using a FACS Calibur® cytofluorometer (Becton Dickinson, Immunocytometry Systems, San Jose, Calif.).
The mean intensity of fluorescence (MIF) observed for each peptide concentration (after dividing by the MIF in the absence of peptide) was used as an indication of peptide binding and expressed as a “fluorescence index.” Stabilization assays were performed similarly. Following initial evaluation of peptide binding at time 0, cells were washed in RPMI complete medium to remove free peptides and incubated in the continuous presence of 0.5 μg/ml brefeldin-A for 2, 4, 6 or 8 hours.

Binding result, binds:
B17, B18, B19, B20, B21, B22, B23, B24
